Laboratory results taken from the RNAGym collection of RNA variant scans (doi:10.1021/acssynbio.7b00057).

B1: Pistol ribozyme (parent)
chain: GGGUCGUUGUUCCAUAAUCGCGUGGAUAUGGCACGCAAGUUUCUACCGGGCACCGUAAAUGUCCGACUGGAGCCGUUCGGGCGGCUAUAAACAGACCUCAGGCCCGAAGCGUGGCGGCACCUGCCGCCGGUGGUAAAAAAGAUCGGAAGAGCACACGUCU

Variants of: B1
Experiment: aptazyme ON/OFF ratio, guanine; higher = stronger switching; co-transcriptional cleavage with and without guanine

First: U7C U8G U10A U11C C12G C13A
Second: U7C U8G U10A U11C C12G C13U
The “aptazyme ON/OFF ratio” value of the first is lower: 1.14 for the first, 1.24 for the second.

Compared with U7C U8G U11A C12A, U7C U8G U11A C12G is lower in “aptazyme ON/OFF ratio” value: 1.14 for the first, 1.1 for the second.

First: U7C U8G U11A C12U
Second: U7C U8G U10C U11G C12G C13G
The “aptazyme ON/OFF ratio” value of the first is higher: 1.15 for the first, 1.09 for the second.

Compared with U7C U8G U10C U11G C12G C13U, U7C U8G U10C U11G C12G C13A is lower in “aptazyme ON/OFF ratio” value: 1.11 for the first, 1.09 for the second.

Going from U7C U8G U10G U11G C13G to U7C U8G U10G U11G C13U, the “aptazyme ON/OFF ratio” value rises from 1.28 to 1.39.

First: U7C U8G U10G U11G C13A
Second: U7C U8G G9U U10G U11C C12G C13G
The “aptazyme ON/OFF ratio” value of the first is higher: 1.21 for the first, 1.07 for the second.

Compared with U7C U8G G9U U10G U11C C12G C13U, U7C U8G G9U U10G U11C C12G C13A is lower in “aptazyme ON/OFF ratio” value: 1.08 for the first, 1.03 for the second.

First: U7C U8G U10A U11A C12A C13U
Second: U7C U8G U10A U11A C12A C13G
The “aptazyme ON/OFF ratio” value of the first is higher: 1.18 for the first, 1.12 for the second.

First: U7C U8G U10A U11A C12A C13A
Second: U7C U8G U10A U11G C12G C13A
The “aptazyme ON/OFF ratio” value of the first is lower: 1.1 for the first, 1.11 for the second.

First: U7C U8G U10A U11G C12G C13G
Second: U7C U8G U10A U11G C12G C13U
The “aptazyme ON/OFF ratio” value of the first is lower: 1.23 for the first, 1.36 for the second.

Going from U7C U8G U10A to U7C U8G U10C, the “aptazyme ON/OFF ratio” value falls from 2.08 to 1.34.

First: U7C U8G U10G
Second: U7C U8G U10G U11G C12U C13U
The “aptazyme ON/OFF ratio” value of the first is lower: 1.22 for the first, 1.4 for the second.

Going from U7C U8G U10G U11G C12U C13G to U7C U8G U10G U11G C12U C13A, the “aptazyme ON/OFF ratio” value falls from 1.26 to 1.25.

Going from U7C U8G U10C U11A C12A C13G to U7C U8G U10C U11A C12A C13U, the “aptazyme ON/OFF ratio” value rises from 1.14 to 1.33.

First: U7C U8G U10C U11A C12A C13A
Second: U7C U8G U10A C13A
The “aptazyme ON/OFF ratio” value of the first is higher: 1.19 for the first, 1.15 for the second.

First: U7C U8G U10A C13G
Second: U7C U8G U10A C13U
The “aptazyme ON/OFF ratio” value of the first is lower: 1.15 for the first, 1.46 for the second.

First: U7C U8G U11C C12U C13G
Second: U7C U8G U11C C12U C13A
The “aptazyme ON/OFF ratio” value of the first is lower: 1.19 for the first, 1.35 for the second.

Going from U7C U8G U11C C12U C13U to U7C U8G U10A C12A C13A, the “aptazyme ON/OFF ratio” value falls from 1.35 to 1.16.

Going from U7C U8G U10A C12A C13G to U7C U8G U10A C12A C13U, the “aptazyme ON/OFF ratio” value rises from 1.08 to 1.23.

Compared with U7C U8G U11G C13G, U7C U8G U11G C13A is higher in “aptazyme ON/OFF ratio” value: 1.07 for the first, 1.13 for the second.

Compared with U7C U8G U11G C13U, U7C U8G U10C C12G C13U is higher in “aptazyme ON/OFF ratio” value: 1.14 for the first, 1.35 for the second.

Compared with U7C U8G U10C C12G C13G, U7C U8G U10C C12G C13A is lower in “aptazyme ON/OFF ratio” value: 1.13 for the first, 1.11 for the second.

Going from U7C U8G G9U U11A C12G C13G to U7C U8G G9U U11A C12G C13U, the “aptazyme ON/OFF ratio” value falls from 1.09 to 1.08.

Compared with U7C U8G G9U U11A C12G C13A, U7C U8G U10G U11A is higher in “aptazyme ON/OFF ratio” value: 1.05 for the first, 1.17 for the second.

Going from U7C U8G U10G U11C to U7C U8G U10G U11G, the “aptazyme ON/OFF ratio” value rises from 1.09 to 1.63.

First: U7C U8G U10C U11C C12U
Second: U7C U8G U10C U11C C12G
The “aptazyme ON/OFF ratio” value of the first is higher: 2.76 for the first, 1.41 for the second.

Compared with U7C U8G U10C U11C C12A, U7C U8G U10C U11C C12U C13U is lower in “aptazyme ON/OFF ratio” value: 1.48 for the first, 1.1 for the second.

First: U7C U8G U10C U11C C12U C13G
Second: U7C U8G U10C U11C C12U C13A
The “aptazyme ON/OFF ratio” value of the first is higher: 1.23 for the first, 1.04 for the second.

Compared with U7C U8G G9U U11G C13G, U7C U8G G9U U11G C13U is higher in “aptazyme ON/OFF ratio” value: 1.04 for the first, 1.21 for the second.

Going from U7C U8G G9U U11G C13A to U7C U8G U10G C12A C13A, the “aptazyme ON/OFF ratio” value rises from 1.21 to 1.24.

Going from U7C U8G U10G C12A C13G to U7C U8G U10G C12A C13U, the “aptazyme ON/OFF ratio” value rises from 1.09 to 1.33.

First: U7C U8G U10A U11C C13U
Second: U7C U8G U10A U11C C13A
The “aptazyme ON/OFF ratio” value of the first is lower: 1.01 for the first, 1.02 for the second.

Going from U7C U8G U10A U11C C13G to U7C U8G U10C U11A C12G C13U, the “aptazyme ON/OFF ratio” value rises from 1.03 to 1.08.

First: U7C U8G U10C U11A C12G C13A
Second: U7C U8G U10C U11A C12G C13G
The “aptazyme ON/OFF ratio” value of the first is lower: 1.07 for the first, 1.12 for the second.

Compared with U7C U8G U11C C12G C13A, U7C U8G U11C C12G C13U is higher in “aptazyme ON/OFF ratio” value: 1.15 for the first, 1.17 for the second.

First: U7C U8G U11C C12G C13G
Second: U7C U8G G9U U11C C12A
The “aptazyme ON/OFF ratio” value of the first is lower: 1.17 for the first, 1.41 for the second.

First: U7C U8G G9U U11C C12G
Second: U7C U8G G9U U11C C12U
The “aptazyme ON/OFF ratio” value of the first is higher: 1.32 for the first, 1.21 for the second.

Going from U7C U8G G9U U10G U11G C12G C13U to U7C U8G G9U U10G U11G C12G C13G, the “aptazyme ON/OFF ratio” value falls from 1.25 to 1.24.

Compared with U7C U8G G9U U10G U11G C12G C13A, U7C U8G U10C U11G C12A C13A is lower in “aptazyme ON/OFF ratio” value: 1.15 for the first, 1.11 for the second.

Compared with U7C U8G U10C U11G C12A C13G, U7C U8G U10C U11G C12A C13U is higher in “aptazyme ON/OFF ratio” value: 1.1 for the first, 1.32 for the second.

Going from U7C U8G U10G U11C C12A C13G to U7C U8G U10G U11C C12A C13U, the “aptazyme ON/OFF ratio” value rises from 1.1 to 1.42.

With U7C U8G U10G U11C C12A C13A the “aptazyme ON/OFF ratio” value was 1.19.
